Laboratory results as given in patent US11987606 (Johns Hopkins, dated 2024).

Biological target: T cell receptor of Ova-specific CD8+ T cells (OT-I), on OT-I cells (mouse)
Assay: cell-based or functional assay

IFN-γ expression of OT-I cells (flow cytometry); potency relative to dimeric Kb(Ova)/Fc: > 100 fold | IFN-γ expression of resting or naïve OT-I cells after 12 hours (flow cytometry); potency by minimal dose of antigen required to detect activation, relative to monomeric Kb(Ova): > 1000 fold
B1: Kb(Ova)/ANXA5 (peptide-MHC)
chain: SIINFEKLGGGASGGGGSGGGGSIQKTPQIQVYSRHPPENGKPNILNCYVTQFHPPHIEIQMLKNGKKIPKVEMSDMSFSKDWSFYILAHTEFTPTETDTYACRVKHASMAEPKTVYWDRDMGGGGSGGGGSGGGGSGGGGSGPHSLRYFVTAVSRPGLGEPRYMEVGYVDDTEFVRFDSDAENPRYEPQAPWMEQEGPEYWERETQKAKGNEQSFRVDLRTLLGYYNQSKGGSHTIQVISGCEVGSDGRLLRGYQQYAYDGCDYIALNEDLKTWTAADMAALITKHKWEQAGEAERLRAYLEGTCVEWLRRYLKNGNATLLRTDSPKAHVTHHSRPEDKVTLRCWALGFYPADITLTWQLNGEELIQDMELVETRPAGDGTFQKWASVVVPLGKEQYYTCHVYHQGLPEPLTLRWEPPPSTRSMAQVLRGTVTDFPGFDERADAETLRKAMKGLGTDEESILTLLTSRSNAQRQEISAAFKTLFGRDLLDDLKSELTGKFEKLIVALMKPSRLYDAYELKHALKGAGTNEKVLTEIIASRTPEELRAIKQVYEEEYGSSLEDDVVGDTSGYYQRMLVVLLQANRDPDAGIDEAQVEQDAQALFQAGELKWGTDEEKFITIFGTRSVSHLRKVFDKYMTISGFQIEETIDRETSGNLEQLLLAVVKSIRSIPAYLAETLYYAMKGAGTDDHTLIRVMVSRSEIDLFNIRKEFRKNFATSLYSMIKGDTSGDYKKALLLLCGEDD
